Data published in patent publication US20160348147.

Tested on: PSA peptide M(GVGVP)60GDGQSSIYSQTEEQQDDEEG

For Prostate Specific Antigen (PSA), active, the “optical density of 100 µM PSA peptide before and after 2 h with 20 ng/mL active PSA at 37 C” value was “a distinct difference in the presence of active PSA, with an increase in optical density of the solution above the transition temperature after incubation with enzyme”.
